Test results published in US9766240B2, “Method of identifying a compound for treating a hypoxic or ischemic related disorder” (Dana Farber Cancer Institute, Inc., priority 2001, dated 2017).
Square brackets hold non-standard residues; d marks the D form. Ends that are not written are not given here. Hyp = O=C(O)[C@@H]1C[C@@H](O)CN1

What was measured:
HIF bound to HA-pVHL = target: T1, HIF bound to HA-pVHL (Homo sapiens, UniProt P40337); assay: Peptide elution of HIF coimmunoprecipitated with HA-pVHL from ts20 cells; assay type: binding; settings: 7 μg of peptide in 65 μl PBS
T1 construct: expressed in transfected cells; host or cells: ts20 cells stably transfected with pIRES-HA-VHL
Description: Individual G418-resistant colonies were isolated using cloning cylinders and expanded. Cells producing HA-VHL or HA-VHL (Y98H) were identified by anti-HA immunoblot analysis. […] For the tests shown in FIG. 7C, ts20 cells were grown at the restrictive or permissive temperature for 14 hour, methionine-starved for 90 min, and then grown in the methionine-free media supplemented with ^35S-met ([…]) for 90 min.

pVHL = target: T2, pVHL (Homo sapiens, UniProt P40337); assay: Binding of 35S-labeled pVHL to immobilized biotinylated HIF (556-575) peptides; settings: peptide on monomeric avidin Sepharose, autoradiography
T2 construct: made in house; host or cells: coupled in vitro transcription/translation (TNT kit, Promega)
T2 sequence (P40337 whole entry): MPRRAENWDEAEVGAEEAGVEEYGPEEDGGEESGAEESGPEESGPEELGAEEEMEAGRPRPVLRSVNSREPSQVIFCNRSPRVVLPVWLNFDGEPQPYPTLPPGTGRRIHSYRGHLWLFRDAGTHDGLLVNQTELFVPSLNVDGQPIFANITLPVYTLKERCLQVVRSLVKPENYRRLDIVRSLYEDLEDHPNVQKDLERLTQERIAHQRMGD

T1 sequence (P40337 whole entry): as above
T1 sequence (P62869 whole entry partner): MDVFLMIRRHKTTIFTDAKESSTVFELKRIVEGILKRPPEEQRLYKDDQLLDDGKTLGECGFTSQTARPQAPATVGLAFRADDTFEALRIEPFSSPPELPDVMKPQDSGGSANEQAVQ
T1 sequence (P83940 whole entry partner): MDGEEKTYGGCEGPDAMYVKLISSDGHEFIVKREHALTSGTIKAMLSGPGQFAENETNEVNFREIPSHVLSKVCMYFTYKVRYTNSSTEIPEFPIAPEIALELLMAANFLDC

Row | Substance | elution of HIF bound to HA-pVHL (HIF bound to HA-pVHL) | binding to pVHL (pVHL)
1 | HIF (556-575) Pro564Ala peptide: HIF1α 556-575 peptide with Pro564 replaced by alanine (DLDLEMLAAYIPMDDDFQLR) | not eluted | 
2 | HIF (556-575) peptide with the Leu562Ala substitution and hydroxyproline at residue 564: HIF1α 556-575 peptide, Leu562Ala, hydroxyproline at 564 (DLDLEMAA[Hyp]YIPMDDDFQLR) |  | pVHL bound
